Measurements as given in a protein production outcome set (Wang et al. 2014).

Experiment: label from the status in PepcDB records
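Further: failed if final PepcDB status was selected cloned or expressed and not failed if soluble or beyond.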

| Sequence | protein production |
| --- | --- |
| MSSNNVTTDVVSVDEQAFENAGGQAVDEDGFPVVDETPAFEAEVEQETQAKVDANHPDGIADTSEDRIHGVTLEQEERIRAREAELERISAQAELGTQDGREQRTRAVAAEGSTERRREFQQRAASVEPMADPERDDPRAELSQDELATVNTEADRLATRLDGWSRAAISRRLAEAIVDGRDLTSAVVRVFEELQTAPGGTVPIDALEDIDRKEVSVEGRVTQLWEPSSPSIAQVGLIEDESGRTKLTSWKASDAPWIEEGERVRIHGAAKNWYNGRVSVAVTGWSTLHFPERGRWWDE | failed |
| MSPMSRAGTTVMRRIILMLIYCCLGTGLAGCDYTLREAAIVAPVDPPGGDPVQEPTDVKYYPSDEPVRLGLEHFNRGSYGLSQRYFKDAVEKSPKDLTAWIGLAASYDRLRRFDLADQAYAQAIRLGGETVQILNDQGYSYMLRGNLSAARRKFEKAYSLDPGNPVIANNLELLNGSRRFIERPPNNQP | failed |
| MAFITGAARGQGRSHAVRLAAEGADIIACDICAPVSASVTYAPASPEDLDETARLVEDQGRKALTRVLDVRDDAALRELVADGMEQFGRLDVVVANAGVLSWGRVWELTDEQWDTVIGVNLTGTWRTLRATVPAMIEAGNGGSIVVVSSSAGLKATPGNGHYSASKHGLTALTNTLAIELGEYGIRVNSIHPYSVETPMIEPEAMMEIFARHPSFVHSFPPMPVQPNGFMTADEVADVVAWLAGDGSGTLTGTQIPVDKGALKY | failed |
| SYMYDRDGSLVSEIVSDHENRVLVPFNKIPEEVKQIFLTSEDRHFYEHKGFDFMGMVPPTASNVKDKKIDQGASTITQQLSRNLYLSHERSFSRKLTELAYSYQLEKKYTKNEILEAYLNTIYFNNGVYGVGSAAQFYFSKPLKSLTVGEMAFICAIPNNPTLYDPLKHF | failed |
| MANKTKSKSLLEKMWRIKWWLLSIFTVLFLLFALFFPLNNYYVELPGGAFDTKEVLTVNKKADDSKGSYNFVAVAQTKATLALMLYTQFNDFAKLQTAEEATGNYSDEDFMRINQFYMETSQNQAVYQGLTLAGKEVSLEYMGVYVLQVADDSSFKGVLNIADTVTAVNGKTFDNSTDMIKYVQGLKLGSKVKVTYMRDGKEKTATGKIIKIANGKNGIGIGLTDHTEIKSPENVKFKLDGVGGPSAGLMFTLAIYDQVSGQDLKAGRKIAGTGTIEKDGAVGDIGGAYLKVKSAADSGADIFFVPNNLVTKEMKKADPDAKTNYQEAKEAAEKLGTKMKIVPVKTAQEAIDYLKKTK | failed |
| MKPQLSWKVGGQQGEGIESTGEIFATAMNRKGYYLYGYRHFSSRIKGGHTNNKIRVSTTPVHAISDDLDILIAFDQETIDVNHHEMREDSIILADAKAKPVKPEGCHAQLIELPFTATAKELGTALMKNMVAIGATSALMNLNTNTFEELITNMFSKKGDKVVEVNIQALNEGYQLMQSRLPEIDGDFELESTDALPHLYMIGNDAIGLGAIAAGSQFMAAYPITPASEVMEYMIANISKVNGAVIQTEDEIAAVTMAIGANYGGVRAFTASAGPGLSLMMEAIGLSGMTETPLVIINTQRGGPSTGLPTKQEQSDLMQMIYGTHGDIPKIVVAPTDAEDAFYLTMEAFNLAEQYQCPVIVLSDLQLSLGKQTVEKLDYNRIEIKRGEIIQSDIEREEDDKGYFKRYALTSNGVSPRPIPGVKGGIHHITGVEHNEEGKPSESASNRQQQMEKRMRKIEQLLIESPVEANLQHEDADILYIGFISTKGAIQEGSNRLNQQGIKVNTIQIRQLHPFPTSVIQDAVNKAKKVVVVEHNYQGQLASIIKMNVNIHDKIENYTKYDGTPFLPHEIEEKGKIIATEIKEMV | not failed |
| MDKHHSKKAILKLTLITTSILLMHSNQVNAEEQELKNQEQSPVIANVAQQPSPSVTTNTVEKTSVTAASASNTAKEMGDTSVKNDKTEDELLEELSKNLDTSNLGADLEEEYPSKPETTNNKESNVVTNASTAIAQKVPSAYEEVKPESKSSLAVLDTSKITKLQAITQRGKGNVVAIIDTGFDINHDIFRLDSPKDDKHSFKTKTEFEELKAKHNITYGKWVNDKIVFAHNYANNTETVADIAAAMKDGYGSEAKNISHGTHVAGIFVGNSKRPAINGLLLEGAAPNAQVLLMRIPDKIDSDKFGEAYAKAITDAVNLGAKTINMSIGKTADSLIALNDKVKLALKLASEKGVAVVVAAGNEGAFGMDYSKPLSTNPDYGTVNSPAISEDTLSVASYESLKTISEVVETTIEGKLVKLPIVTSKPFDKGKAYDVVYANYGAKKDFEGKDFKGKIALIERGGGLDFMTKITHATNAGVVGIVIFNDQEKRGNFLIPYRELPVGIISKVDGERIKNTSSQLTFNQSFEVVDSQGGNRMLEQSSWGVTAEGAIKPDVTASGFEIYSSTYNNQYQTMSGTSMASPHVAGLMTMLQSHLAEKYKGMNLDSKKLLELSKNILMSSATALYSEEDKAFYSPRQQGAGVVDAEKAIQAQYYITGNDGKAKINLKRMGDKFDITVTIHKLVEGVKELYYQANVATEQVNKGKFALKPQALLDTNWQKVILRDKETQVRFTIDASQFSQKLKEQMANGYFLEGFVRFKEAKDSNQELMSIPFVGFNGDFANLQALETPIYKTLSKGSFYYKPNDTTHKDQLEYNESAPFESNNYTALLTQSASWGYVDYVKNGGELELAPESPKRIILGTFENKVEDKTIHLLERDAANNPYFAISPNKDGNRDEITPQATFLRNVKDISAQVLDQNGNVIWQSKVLPSYRKNFHNNPKQSDGHYRMDALQWSGLDKDGKVVADGFYTYRLRYTPVAEGANSQESDFKVQVSTKSPNLPSRAQFDETNRTLSLAMPKESSYVPTYRLQLVLSHVVKDEEYGDETSYHYFHIDQEGKVTLPKTVKIGESEVAVDPKALTLVVEDKAGNFATVKLSDLLNKAVVSEKENAIVISNSFKYFDNLKKEPMFISKKEKVVNKNLEEIILVKPQTTVTTQSLSKEITKSGNEKVLTSTNNNSSRVAKIISPKHNGDSVNHTLPSTSDRATNGLFVGTLALLSSLLLYLKPKKTKNNSK | failed |
| MATEPPKIVWNEGKRRFETEDHEAFIEYKMRNNGKVMDLVHTYVPSFKRGLGLASHLCVAAFEHASSHSISIIPSCSYVSDTFLPRNPSWKPLIHSEVFKSSI | not failed |
| MSEVTRSLLQRWGASLRRGADFDSWGQLVEAIDEYQILARHLQKEAQAQHNNSEFTEEQKKTIGKIATCLELRSAALQSTQSQEEFKLEDLKKLEPILKNILTYNKEFPFDVQPI | not failed |
| MLLYVLIISNDKKLIEEARKMAEKANLELRTVKTEDELKKYLEEFRKESQNIKVLILVSNDEELDKAKELAQKMEIDVRTRKVTSPDEAKRWIKEFSEEGGSLEHHHHHH | not failed |
| MVDFKVVLSDPKTGLSYKIDAAGAAAGALLGKKIGTEVDGAPFGMSGYKITITGGSDKTGTPARPDLPGNGRRGLLISDGFGFNATHNGERRRKSQRGNEIAADFVQVNAKITVYGEKPVTEIFAAAAE | failed |
| MRSTEVGRVVEDFIVLPPTPKSKWKLSDFELLHKLGGGNYGDVHLASVKDCNFVCALKRLSIKKLADFDIATQLRREIEIAFNTRHKYLLRTYAYFFDETDIYLIMEPCSNGMLYTELNRVKCFAPPTAARYVAQLAEALLYLHQHHILHRDIKPENILLDHNNNIKLADFGWSVHDPDNRRKTSCGTPEYFPPEIVGRQAYDTSADLWCLGIFCYELLVGKTPFVGKDTDQICKNIHSMHFKIPENIPSEAKDLIANLLLRDGSRRLALHRVVNHQFLLKYYYLPNNLQPPTGKRPRLDAEPTAGKEN | failed |
| MIRNSGIHHEKLSQLLQSGHSLWVLYLDIAKFHEVEFRQGYRACAQILDLVLTEMKHTLHNYMHLFHTILLDYQGGDDFLFYFAPNENTPWSIAKLIPEFVPTLESRINHRIQRLVNETITLHSGLVECKPQPGRSVDYLLYGALKEAFLLNKSEPDPLYFSHREEVNRLLEEPQTYLSSAFQPILDVVSGEFFGFEALTRLKPPSSFAGIADLFPFAEKIGQLYPVETICRRTAILNSSQILRPKELLFLNVEPQVLTDPEFSSGQTRRLLETQGLTPSDVVLEITERSAIANYGTFREALEHYRKQGYLIALDDVGAGYSSLQSIAELHPDFLKIDRCLIQGIHLDPIKWALFETFVTFSRRIGCRILAEGVETQEEMRTVVQLGADYVQGYFIAKPSFTRPELSDPVTQIVQSQQRLSFNSEKTVQHLLEPLPLVTPQTTVNAVQNYFEEHAKIWLIGVADKGELLGVVQRDNLYSALATPFGVSLYSQRPVTSLMNNKQLLIEDTTPIEVASSLAMARPDAHLYDGIVVVQQQKPIGMIRVASLIKAMSDTQLQIAQGASPLTGLPGNSAIEQEIKRRLNSGNAFGMIYADLNQFKAFNDTYGFQYGDSIIKLLGKILMQDSLKADDLAFVGHVGGDDFIILTTQNVTKTLGETILLSFQEQLSAMQGAQDLSLALAGLIIYPHTAWTPATLSERIAAVKREAKKAHCNYFLLRE | failed |
